Measured values reported in US20030171557.

What was measured:
[1] = target: GST protein [GST: P08515]
IkBα C-terminal peptide = target: T1, IkBα C-terminal peptide
T1 chain: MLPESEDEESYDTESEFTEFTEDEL

[2] = target: GST-IkBα protein [GST: P08515]

Chain of GST protein [GST: P08515] (P08515 whole entry): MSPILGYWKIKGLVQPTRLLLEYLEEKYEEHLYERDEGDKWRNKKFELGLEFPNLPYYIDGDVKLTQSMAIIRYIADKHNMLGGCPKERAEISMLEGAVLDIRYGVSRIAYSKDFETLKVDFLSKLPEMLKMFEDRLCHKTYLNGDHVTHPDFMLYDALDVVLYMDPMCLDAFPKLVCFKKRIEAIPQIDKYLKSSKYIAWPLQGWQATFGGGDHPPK

B1: GST fusion protein with wild VRK1 protein (protein)
chain: MPRVKAAQAGRQSSAKRHLAEQFAVGEIITDMAKKEWKVGLPIGQGGFGCIYLADMNSSESVGSDAPCVVKVEPSDNGPLFTELKFYQRAAKPEQIQKWIRTRKLKYLGVPKYWGSGLHDKNGKSYRFMIMDRFGSDLQKIYEANAKRFSRKTVLQLSLRILDILEYIHEHEYVHGDIKASNLLLNYKNPDQVYLVDYGLAYRYCPEGVHKEYKEDPKRCHDGTIEFTSIDAHNGVAPSRRGDLEILGYCMIQWLTGHLPWEDNLKDPKYVRDSKIRYRENIASLMDKCFPEKNKPGEIAKYMETVKLLDYTEKPLYENLRDILLQGLKAIGSKDDGKLDLSVVENGGLKAKTITKKRKKEIEESKEPGVEDTEWSNTQTEEAIQTRSRTRKRVQK
kinase assay, phosphorylation of substrate ([γ-32P]-ATP, SDS-PAGE, 10 mM Mg) [1]: GST protein was not phosphorylated by VRK1 | kinase assay, phosphorylation of substrate ([γ-32P]-ATP, SDS-PAGE) (IkBα C-terminal peptide): Arrows indicate ... phosphorylated IkBα C-terminal peptide (“P”) | kinase assay with casein as substrate in the presence of Mg, Mn, Zn or Ca at 2 mM or 10 mM (casein (Sigma)): VRK1 exhibits phosphorylation activity in the presence of all divalent cations except for Zn ... especially strong activity in the presence of Mn | kinase assay, phosphorylation of substrate ([γ-32P]-ATP, SDS-PAGE, 10 mM Mg) (casein (Sigma)): wild VRK1 protein phosphorylates casein and GST-IkBα | kinase assay, phosphorylation of substrate ([γ-32P]-ATP, SDS-PAGE, 10 mM Mg) [2]: wild VRK1 protein phosphorylates casein and GST-IkBα
